T1: V5-tagged human IL-17RA, wild type (human, UniProt Q96F46 33-866, limits assumed)
T1 construct: Expressed in HeLa cells and immunoprecipitated from the lysate; also called V5-tagged IL-17RA; the wild-type receptor
T1 sequence (looked up): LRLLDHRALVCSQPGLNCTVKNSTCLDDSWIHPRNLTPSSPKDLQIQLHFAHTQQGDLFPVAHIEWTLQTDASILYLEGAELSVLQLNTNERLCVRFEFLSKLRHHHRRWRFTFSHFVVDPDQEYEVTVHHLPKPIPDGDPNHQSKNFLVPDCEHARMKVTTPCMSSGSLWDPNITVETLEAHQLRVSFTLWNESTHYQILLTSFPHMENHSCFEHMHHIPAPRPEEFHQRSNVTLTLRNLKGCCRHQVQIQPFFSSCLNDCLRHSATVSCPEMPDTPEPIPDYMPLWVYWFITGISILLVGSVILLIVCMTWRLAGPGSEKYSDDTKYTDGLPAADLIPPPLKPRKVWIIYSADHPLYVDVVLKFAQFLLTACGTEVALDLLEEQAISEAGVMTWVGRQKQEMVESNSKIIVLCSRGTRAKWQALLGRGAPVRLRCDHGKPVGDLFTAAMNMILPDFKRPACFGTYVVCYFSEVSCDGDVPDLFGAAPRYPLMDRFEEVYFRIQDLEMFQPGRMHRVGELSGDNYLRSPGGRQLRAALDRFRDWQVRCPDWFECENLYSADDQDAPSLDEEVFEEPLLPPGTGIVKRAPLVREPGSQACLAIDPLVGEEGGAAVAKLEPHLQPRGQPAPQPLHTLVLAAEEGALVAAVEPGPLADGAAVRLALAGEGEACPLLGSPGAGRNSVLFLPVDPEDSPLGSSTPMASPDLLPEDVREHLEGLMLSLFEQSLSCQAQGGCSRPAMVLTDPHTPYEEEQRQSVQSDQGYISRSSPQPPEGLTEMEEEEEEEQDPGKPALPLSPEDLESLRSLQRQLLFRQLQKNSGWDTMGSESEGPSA

T2: Act1 in IL-17RB-deficient MEFs reconstituted with Myc-tagged IL-17RB (mouse (cells are mouse embryonic …, UniProt Q8N7N6 1-555))
T2 construct: That the co-precipitated Act1 is the cells' own is read from the description of the experiment
T2 sequence (looked up): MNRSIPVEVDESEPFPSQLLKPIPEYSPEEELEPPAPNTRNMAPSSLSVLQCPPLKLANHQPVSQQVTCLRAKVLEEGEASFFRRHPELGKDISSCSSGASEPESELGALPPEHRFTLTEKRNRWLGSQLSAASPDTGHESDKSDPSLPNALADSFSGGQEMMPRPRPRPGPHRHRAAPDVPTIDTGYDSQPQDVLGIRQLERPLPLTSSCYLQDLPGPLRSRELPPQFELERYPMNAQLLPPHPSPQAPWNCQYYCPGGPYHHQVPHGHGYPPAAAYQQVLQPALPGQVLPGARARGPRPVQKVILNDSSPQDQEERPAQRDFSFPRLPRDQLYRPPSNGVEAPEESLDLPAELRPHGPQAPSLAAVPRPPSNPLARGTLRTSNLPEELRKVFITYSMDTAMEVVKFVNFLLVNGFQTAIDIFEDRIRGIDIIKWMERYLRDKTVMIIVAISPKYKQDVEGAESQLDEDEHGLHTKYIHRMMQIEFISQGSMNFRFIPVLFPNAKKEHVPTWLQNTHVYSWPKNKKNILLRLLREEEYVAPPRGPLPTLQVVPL


Columns and labels:
[1] = molecular target: T1, V5-tagged human IL-17RA, wild type; test: co-immunoprecipitation, as told back in Example 9
[2] = molecular target: T2, Act1 in IL-17RB-deficient MEFs …; test: co-immunoprecipitation in reconstituted IL-17RB-deficient MEFs (IP anti-Myc)

binding result [1] | binding result [2] | Binder
no binding | – | FLAG-tagged mouse Act1 point mutant H472D (other, UniProt Q8N7N6 1-555, looked up) MNRSIPVEVDESEPFPSQLLKPIPEYSPEEELEPPAPNTRNMAPSSLSVLQCPPLKLANHQPVSQQVTCLRAKVLEEGEASFFRRHPELGKDISSCSSGASEPESELGALPPEHRFTLTEKRNRWLGSQLSAASPDTGHESDKSDPSLPNALADSFSGGQEMMPRPRPRPGPHRHRAAPDVPTIDTGYDSQPQDVLGIRQLERPLPLTSSCYLQDLPGPLRSRELPPQFELERYPMNAQLLPPHPSPQAPWNCQYYCPGGPYHHQVPHGHGYPPAAAYQQVLQPALPGQVLPGARARGPRPVQKVILNDSSPQDQEERPAQRDFSFPRLPRDQLYRPPSNGVEAPEESLDLPAELRPHGPQAPSLAAVPRPPSNPLARGTLRTSNLPEELRKVFITYSMDTAMEVVKFVNFLLVNGFQTAIDIFEDRIRGIDIIKWMERYLRDKTVMIIVAISPKYKQDVEGAESQLDEDEHGLDTKYIHRMMQIEFISQGSMNFRFIPVLFPNAKKEHVPTWLQNTHVYSWPKNKKNILLRLLREEEYVAPPRGPLPTLQVVPL
– | no binding | Myc-tagged mouse IL-17RB point mutant L419D (receptor, UniProt Q9JIP3 18-499, looked up) REPTIQCGSETGPSPEWMVQHTLTPGDLRDLQVELVKTSVAAEEFSILMNISWILRADASIRLLKATKICVSGKNNMNSYSCVRCNYTEAFQSQTRPSGGKWTFSYVGFPVELSTLYLISAHNIPNANMNEDSPSLSVNFTSPGCLNHVMKYKKQCTEAGSLWDPDITACKKNEKMVEVNFTTNPLGNRYTILIQRDTTLGFSRVLENKLMRTSVAIPVTEESEGAVVQLTPYLHTCGNDCIRREGTVVLCSETSAPIPPDDNRRMLGGWLPLFLVLLVAVWVLAAGIYLTWRQGRSTKTSFPISTMLLPLIKVLVVYPSEICFHHTVCRFTDFLQNYCRSEVILEKWQKKKIAEMGPVQWLTTQKQAADKVVFLLPSDVPTLCDSACGHNEGSARENSQDDFPLAFNLFCSDFSSQTHLHKYLVVYLGGADLKGDYNALSVCPQYHLMKDATAFHTELLKATQSMSVKKRSQACHDSCSPL
– | no binding | Myc-tagged mouse IL-17RB point mutant L422D (receptor, UniProt Q9JIP3 18-499, looked up) REPTIQCGSETGPSPEWMVQHTLTPGDLRDLQVELVKTSVAAEEFSILMNISWILRADASIRLLKATKICVSGKNNMNSYSCVRCNYTEAFQSQTRPSGGKWTFSYVGFPVELSTLYLISAHNIPNANMNEDSPSLSVNFTSPGCLNHVMKYKKQCTEAGSLWDPDITACKKNEKMVEVNFTTNPLGNRYTILIQRDTTLGFSRVLENKLMRTSVAIPVTEESEGAVVQLTPYLHTCGNDCIRREGTVVLCSETSAPIPPDDNRRMLGGWLPLFLVLLVAVWVLAAGIYLTWRQGRSTKTSFPISTMLLPLIKVLVVYPSEICFHHTVCRFTDFLQNYCRSEVILEKWQKKKIAEMGPVQWLTTQKQAADKVVFLLPSDVPTLCDSACGHNEGSARENSQDLFPDAFNLFCSDFSSQTHLHKYLVVYLGGADLKGDYNALSVCPQYHLMKDATAFHTELLKATQSMSVKKRSQACHDSCSPL

From patent publication US20150158912A1 (CLEVELAND CLINIC FOUNDATION, published 2015)
